Measured values reported in US20200165325A1.
Where two headings read alike, the source gives them in different places.

How the values were obtained:
[1] = molecular target: Env (gp120) of HIV-1 strain CAP210.2.00.E8 (HIV-1)
[2] = molecular target: Env (gp120) of HIV-1 strain CAP45.2.00.G3 (HIV-1)
[3] = molecular target: Env (gp120) of HIV-1 strain TRO.11 (HIV-1)
[4] = molecular target: Env (gp120) of HIV-1 strain 1006_11_C3_1601 (HIV-1)
[5] = molecular target: Env (gp120) of HIV-1 strain 211-9 (HIV-1)
[6] = molecular target: Env (gp120) of HIV-1 strain 231965.c01 (HIV-1)
[7] = molecular target: Env (gp120) of HIV-1 strain 231966.c02 (HIV-1)
[8] = molecular target: Env (gp120) of HIV-1 strain 3016.v5.c45 (HIV-1)
[9] = molecular target: Env (gp120) of HIV-1 strain 6535.3 (HIV-1)
[10] = molecular target: Env (gp120) of HIV-1 strain CNE20 (HIV-1)
[11] = molecular target: Env (gp120) of HIV-1 strain Ce2060_G9 (HIV-1)
[12] = molecular target: Env (gp120) of HIV-1 strain HIV-16845-2.22 (HIV-1)
[13] = molecular target: Env (gp120) of HIV-1 strain P0402_c2_11 (HIV-1)
[14] = molecular target: Env (gp120) of HIV-1 strain P1981_C5_3 (HIV-1)
[15] = molecular target: Env (gp120) of HIV-1 strain Q23.17 (HIV-1)
[16] = molecular target: Env (gp120) of HIV-1 strain Q769.d22 (HIV-1)
[17] = molecular target: Env (gp120) of HIV-1 strain SC422661.8 (HIV-1)
[18] = molecular target: Env (gp120) of HIV-1 strain T255-34 (HIV-1)
[19] = molecular target: Env (gp120) of HIV-1 strain TRJO4551.58 (HIV-1)
[20] = molecular target: Env (gp120) of HIV-1 strain X1193_c1 (HIV-1)
[21] = molecular target: Env (gp120) of HIV-1 strain X1254_c3 (HIV-1)
[22] = molecular target: Env (gp120) of HIV-1 strain X2131_C1_B5 (HIV-1)
[23] = molecular target: Env (gp120) of HIV-1 strain ZM135M.PL10a (HIV-1)
[24] = molecular target: Env (gp120) of HIV-1 strain ZM214M.PL15 (HIV-1)
[25] = molecular target: Env (gp120) of HIV-1 strain ZM233M.PB6 (HIV-1)
[26] = molecular target: Env (gp120) of HIV-1 strain ZM53M.PB12 (HIV-1)
[27] = molecular target: Env (gp120) of HIV-1 strain AC10.0.29 (HIV-1)
[28] = molecular target: Env (gp120) of HIV-1 strain SC422661.8 (HIV-1); remark: listed apart in the source

Substance	neutralization IC50 [1]	neutralization IC50 [2]	neutralization IC50 [3]	neutralization IC50 [4]	neutralization IC50 [5]	neutralization IC50 [6]	neutralization IC50 [7]	neutralization IC50 [8]	neutralization IC50 [9]	neutralization IC50 [10]	neutralization IC50 [11]	neutralization IC50 [12]	neutralization IC50 [13]	neutralization IC50 [14]	neutralization IC50 [15]	neutralization IC50 [16]	neutralization IC50 [17]	neutralization IC50 [18]	neutralization IC50 [19]	neutralization IC50 [20]	also measured
NIH45-46 IgG (antibody)	> 50 µg/mL	> 50 µg/mL	1 µg/mL	0.027 µg/mL	> 50 µg/mL	0.051 µg/mL	1.64 µg/mL	> 50 µg/mL	0.23 µg/mL	7.83 µg/mL	0.058 µg/mL	5 µg/mL	0.073 µg/mL	0.08 µg/mL	0.14 µg/mL	0.009 µg/mL	0.06 µg/mL	0.71 µg/mL	0.04 µg/mL	0.021 µg/mL	neutralization IC50 [21]: 0.032 µg/mL; neutralization IC50 [22]: 0.23 µg/mL; neutralization IC50 [23]: 0.59 µg/mL; neutralization IC50 [24]: 0.17 µg/mL; neutralization IC50 [25]: 2.5 µg/mL; neutralization IC50 [26]: 0.175 µg/mL
NIH45-46^G54F IgG (antibody)	> 50 µg/mL	> 50 µg/mL	0.08 µg/mL	0.003 µg/mL	> 50 µg/mL	0.022 µg/mL	0.06 µg/mL	5.82 µg/mL	0.07 µg/mL	0.53 µg/mL	0.022 µg/mL	0.59 µg/mL	0.008 µg/mL	0.03 µg/mL	0.03 µg/mL	0.005 µg/mL	0.04 µg/mL	0.03 µg/mL	0.03 µg/mL	< 0.001 µg/mL	neutralization IC50 [27]: 0.3 µg/mL; neutralization IC50 [28]: 0.02 µg/mL; neutralization IC50 [21]: 0.011 µg/mL; neutralization IC50 [22]: 0.1 µg/mL; neutralization IC50 [23]: 0.13 µg/mL; neutralization IC50 [24]: 0.09 µg/mL; neutralization IC50 [25]: 0.22 µg/mL; neutralization IC50 [26]: 0.08 µg/mL
NIH45-46^G54W IgG (antibody)	41 µg/mL	6.6 µg/mL	0.09 µg/mL	< 0.001 µg/mL	16.4 µg/mL	< 0.001 µg/mL	0.02 µg/mL	1.47 µg/mL	0.03 µg/mL	0.04 µg/mL	0.005 µg/mL	0.45 µg/mL	0.003 µg/mL	0.02 µg/mL	0.01 µg/mL	< 0.001 µg/mL	0.02 µg/mL	< 0.001 µg/mL	0.01 µg/mL	< 0.001 µg/mL	neutralization IC50 [27]: 0.2 µg/mL; neutralization IC50 [28]: 0.03 µg/mL; neutralization IC50 [21]: 0.002 µg/mL; neutralization IC50 [22]: 0.05 µg/mL; neutralization IC50 [23]: 0.04 µg/mL; neutralization IC50 [24]: 0.03 µg/mL; neutralization IC50 [25]: 0.02 µg/mL; neutralization IC50 [26]: 0.04 µg/mL
NIH45-46^G54Y IgG (antibody)	> 50 µg/mL	45 µg/mL	0.1 µg/mL	0.005 µg/mL	> 50 µg/mL	0.025 µg/mL	0.06 µg/mL	17.9 µg/mL	0.08 µg/mL	0.33 µg/mL	0.021 µg/mL	0.59 µg/mL	0.012 µg/mL	0.04 µg/mL	0.02 µg/mL	0.007 µg/mL	0.04 µg/mL	0.04 µg/mL	0.03 µg/mL	0.006 µg/mL	neutralization IC50 [27]: 0.4 µg/mL; neutralization IC50 [28]: 0.06 µg/mL; neutralization IC50 [21]: 0.013 µg/mL; neutralization IC50 [22]: 0.1 µg/mL; neutralization IC50 [23]: 0.09 µg/mL; neutralization IC50 [24]: 0.06 µg/mL; neutralization IC50 [25]: 0.16 µg/mL; neutralization IC50 [26]: 0.06 µg/mL
